# B1: CB6-dIgA2 (dimeric chimeric IgA2 of monoclonal antibody CB6 with J chain) (antibody)
# heavy: ASEVQLVESGGGLVQPGGSLRLSCAASGFTVSSNYMSWVRQAPGKGLEWVSVIYSGGSTFYADSVKGRFTISRDNSMNTLFLQMNSLRAEDTAVYYCARVLPMYGDYLDYWGQGTLVTVSSASTKGPSVFPLAPSSKSTSGASPTSPKVFPLSLDSTPQDGNVVVACLVQGFFPQEPLSVTWSESGQNVTARNFPPSQDASGDLYTTSSQLTLPATQCPDGKSVTCHVKHYTNPSQDVTVPCPVPPPPPCCHPRLSLHRPALEDLLLGSEANLTCTLTGLRDASGATFTWTPSSGKSAVQGPPERDLCGCYSVSSVLPGCAQPWNHGETFTCTAAHPELKTPLTANITKSGNTFRPEVHLLPPPSEELALNELVTLTCLARGFSPKDVLVRWLQGSQELPREKYLTWASRQEPSQGTTTFAVTSILRVAAEDWKKGDTFSCMVGHEALPLAFTQKTIDRLAGKPTHVNVSVVMAEVDGTCY
# light: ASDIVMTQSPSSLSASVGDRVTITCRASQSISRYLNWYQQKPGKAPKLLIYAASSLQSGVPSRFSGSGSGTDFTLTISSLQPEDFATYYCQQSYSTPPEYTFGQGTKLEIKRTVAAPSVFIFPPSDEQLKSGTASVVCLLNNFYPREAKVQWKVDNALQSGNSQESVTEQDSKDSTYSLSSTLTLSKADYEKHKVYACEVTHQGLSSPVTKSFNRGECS
# J chain: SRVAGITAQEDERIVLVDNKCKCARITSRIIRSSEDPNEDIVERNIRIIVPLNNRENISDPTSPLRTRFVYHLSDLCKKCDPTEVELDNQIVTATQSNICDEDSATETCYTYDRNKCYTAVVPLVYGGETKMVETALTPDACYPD
# Target: SARS-COV-2 spike protein, ancestral Hu-1, on retroviral pseudotyped virus (SARS-COV-2, UniProt P0DTC2 14-1273)
# Experiment: cell-based or functional assay
binder,measurement,value
B1,"IC50 of pseudotyped virus entry, fold against the IgG version",2.5 fold
